Molecular target: truncated core tau unit terminating at Ala-390 (human) (UniProt P10636)
Assay: ELISA tau-tau binding assay; core tau unit in the solid phase, full-length tau in the aqueous phase

Sequence of truncated core tau unit terminating at Ala-390 (human) (P10636 614-707 limits assumed): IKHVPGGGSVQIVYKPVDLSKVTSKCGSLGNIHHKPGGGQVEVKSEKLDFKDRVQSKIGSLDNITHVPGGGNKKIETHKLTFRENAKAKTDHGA

Kd: 8 to 25 nM
Substance: normal full-length tau protein (the particular tau species/isoform tested)

— US6953794
